From patent publication US20090075921A1, “Bone/joint disease sensitivity gene and use thereof” (Riken, priority 2004, published 2009)

Columns and labels:
TGF-β1 = TGF-β1 (Homo sapiens, UniProt P01137); experiment: Binding assay of asporin and TGF-β by pull-down assay method; settings: S-Protein agarose precipitate, Western blotting
Procedure: With the pET29b-ASP13 and pET29b-ASP14 thus prepared as the templates, S-tagged human asporin D13 and D14 were prepared by performing a reaction in the presence of Transcend™ Biotin-Lysyl-tRNA using TNT Quick Coupled Transcription/Translation Systems (Promega). A reaction mixture comprising S-tagged human asporin D13 or D14 (10 μl) and TGF-β1 (0.1 μg) were mixed in buffer A (50 mM Tris (pH 7.5), 150 mM NaCl, 1% Triton X-100, complete protease inhibitor cocktail tablets (Roche)) at 4° C. for 1 hour, S-Protein agarose (Novagen, 12.5 μl) was added, and the mixture was further incubated at room temperature for 30 minutes. The precipitated resin was washed with buffer A five times, after which SDS-PAGE was performed under reducing conditions. S-tagged human asporin in the precipitate was detected by Western blotting using streptavidin-HRP (R&D Systems), and TGF-β1 was detected by Western blotting using biotinylated anti-TGF-β1 antibody (Genzyme). As a result of an examination of the binding of human asporin and TGF-β by the method described above, a band of TGF-β1 was detected in the precipitate comprising S-tagged human asporin D13 or D14 (FIG. 17).
Using the recombinant mouse asporin purified by the method described in Example 31, its capability of binding with TGF-β1 was examined by the method described in Example 22 (pull-down assay method); as a result, it was confirmed that TGF-β1 was detected in the precipitate of purified mouse asporin (FIG. 26).

ATDC5 cells [1] = experiment: Purified recombinant mouse asporin on TGF-β1-stimulated aggrecan and type II collagen gene expression in ATDC5; format: cell-based; settings: TGF-β1 10 ng/ml, 18 hours, corrected by GAPDH
Procedure: ATDC5 cells were inoculated to a 12-well plate at […], and cultured in a medium 1-2 (a DMEM/F12 medium containing 5% FBS, ITS (Sigma), penicillin (100 U/ml) and streptomycin (100 μg/ml)) for 2 days. Purified mouse asporin diluted with a medium 1-2 containing 0.2% FBS was added to the cells, and the cells were further cultured for 12 hours, after which TGF-β1 (10 ng/ml) was added, and the cells were further cultured for 18 hours, after which total RNA extraction, purification, cDNA synthesis, and real-time PCR were performed in the same manner as Example 18. At this time, the expression levels of the aggrecan and type II collagen genes were corrected by the expression level of the […] (GAPDH) gene.

[2] = system: normal human articular chondrocytes of knee joint (NHAC); experiment: Purified recombinant mouse asporin on TGF-β-stimulated gene expression in NHAC; format: cell-based
Procedure: NHAC purchased from Cambrex Company was cultured in the growth medium attached to the kit (chondrocyte growth medium, CGM) in a 10-cm petri dish, after which the cells were scraped with 0.05% Trypsin/EDTA, and inoculated to a 12-well plate at 10^5 cells/well; on the following day, the medium was exchanged with DMEM/F12+0.2% FBS; 5 hours later, asporin was added. After the cells were further cultured for 12 hours, TGF-β1 (40 ng/ml) was added; from the cells cultured for 48 hours, total RNA preparation, cDNA synthesis, and real-time PCR were performed according to the methods described in Example 12.
Using a cDNA prepared by the method described in Example 35, the expression of the asporin and TGF-β1 genes was examined by real-time PCR. […] From this, it was shown that asporin negatively regulated the expression of both the asporin and TGF-β1 genes in the presence of TGF-β1.

ATDC5 cells [3] = experiment: MTT assay of ATDC5 cell growth; format: cell-based, mouse
Procedure: ATDC5 was inoculated to a 12-well plate at 0.4×10^5 cells/well, and cultured using the medium 1-2 described in Example 19 for 24 hours, after which asporin and bFGF were added, and MTT assay was performed over time as described below. Specifically, the medium was removed by suction, the 1 mg/ml MTT reagent (DOJINDO) dissolved in DMEM/F12 was added at 1 ml/well, and the plate was incubated in a CO2 incubator for 1 hour. The supernatant was removed by suction, a Lysis reagent (86% isopropanol, 40 mM HCl, 1% SDS) was added to the plate at 0.2 ml/well, and extraction was performed at room temperature for 5 minutes. This extract was transferred to a 96-well plate, and OD550 was measured using a plate reader.

bFGF = bFGF (Homo sapiens, UniProt P09038); experiment: Binding assay of mouse asporin and bFGF by microplate assay method; settings: bFGF-coated plate, OD405
Chain of bFGF (P09038 134-288 limits assumed, species assumed): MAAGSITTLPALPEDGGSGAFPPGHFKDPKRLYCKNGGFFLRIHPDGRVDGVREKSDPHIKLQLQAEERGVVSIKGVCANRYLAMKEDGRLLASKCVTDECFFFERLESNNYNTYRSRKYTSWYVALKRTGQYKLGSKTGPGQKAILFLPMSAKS
Procedure: A binding assay was performed using the method described in Example 24 with a partial modification as described below. To a Maxisorp 96-well microplate of Nunc, a 1 μg/ml TGF-β1 solution prepared with 0.05M sodium carbonate buffer (pH 9.6) was dispensed at 100 μl/well, and the microplate was coated with TGF-β1 at 4° C. overnight. The TGF-β-coated wells were blocked in 200 μl/well of Block Ace at 37° C. for 3 hours. Next, mouse asporin and biotinylated mouse asporin, diluted with Block Ace, were added to obtain a total volume of 100 μl per well, and the microplate was incubated at 4° C. overnight. The wells were washed with […] of TBST three times, after which streptavidin-alkaline phosphatase (Novagen) diluted 1000 fold with TBST was added at […], and the microplate was incubated at room temperature for 1 hour. The wells were washed with 400 μl/well of TBST five times, and then colored using an alkaline phosphatase substrate kit (BIO-RAD), and the absorbance at 405 nm was measured using Ultramark Microplate Imaging System (BIO-RAD).
A binding assay was performed in the same manner as Example 34 except that the microplate was coated with bFGF solution in place of 1 μg/ml TGF-β1.

[4] = system: Smad2 phosphorylation in NHAC; experiment: Smad2 phosphorylation by TGF-β1 in NHAC (Western blotting); format: cell-based, human; settings: asporin 20 μg/ml, TGF-β1 40 ng/ml, 10 minutes
Procedure: NHAC was inoculated to a 12-well plate, and cultured in a DMEM/F12 containing 10% FBS and penicillin/streptomycin; when the cells became nearly confluent, the medium was exchanged with the same medium containing 0.2% serum. 12 hours later, asporin (20 μg/ml) was added; still 12 hours later, TGF-β1 (40 ng/ml) was added; 10 minutes later, the cells were lysed with the M-PER reagent (PIERCE). SDA-PAGE was performed using this cell extract, and Western blotting was performed according to the protocol attached to an antibody product of Cell Signaling Company. As the primary antibodies for detection of phosphorylated Smad2 and Smad2 protein, Phospho-Smad2 antibody (Cell Signaling) and rabbit anti-Smad2 (Zymed Laboratories) were used, respectively. As the […], anti-rabbit IgG-HRP (Cell Signaling) was used.

Chain of TGF-β1 (P01137 279-390 limits assumed, species assumed): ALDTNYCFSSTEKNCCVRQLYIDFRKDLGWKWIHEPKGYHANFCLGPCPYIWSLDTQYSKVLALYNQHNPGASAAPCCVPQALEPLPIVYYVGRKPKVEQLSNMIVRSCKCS

B1: purified mouse asporin: recombinant mouse asporin expressed in Escherichia coli, refolded from insoluble fraction and purified by gel filtration (protein)
chain: DMEDTDDDDNDDDDNSLFPTKEPVNPFFPFDLFPTCPFGCQCYSRVVHCSDLGLTSVPNNIPFDTRMVDLQNNKIKEIKENDFKGLTSLYALILNNNKLTKIHPKTFLTTKKLRRLYLSHNQLSEIPLNLPKSLAELRIHDNKVKKIQKDTFKGMNALHVLEMSANPLENNGIEPGAFEGVTVFHIRIAEAKLTSIPKGLPPTLLELHLDFNKISTVELEDLKRYRELQRLGLGNNRITDIENGTFANIPRVREIHLEHNKLKKIPSGLQELKYLQIIFLHYNSIAKVGVNDFCPTVPKMKKSLYSAISLFNNPMKYWEIQPATFRCVLGRMSVQLGNVGK
modifications: left off: small tags and cut ends
B1 was tested, and the “binding to TGF-β1 (pull-down)” value (TGF-β1) was “bound to TGF-β1 in vitro”, the “suppression of the TGF-β1-stimulated expression of the aggrecan and type II collagen genes” value (ATDC5 cells [1]) was “observed depending on the amount of purified mouse asporin added” and the “TGF-β1-stimulated increases in expression of the asporin and TGF-β1 genes” value ([2]; NHAC, cDNA of Example 35) was “both suppressed”. For the same molecule, the “TGF-β1-stimulated expression of the type II collagen and aggrecan genes” value ([2]; TGF-β1 40 ng/ml, 48 hours) was “suppressed the TGF-β1-stimulated expression of the type II collagen and aggrecan genes in NHAC concentration-dependently”, the “growth of ATDC5 cells (MTT, OD550)” value (ATDC5 cells [3]; added alone, medium 1-2) was “suppressed the growth of ATDC5 cells concentration-dependently” and the “growth suppressive effect of bFGF on ATDC5 cells” value (ATDC5 cells [3]; addition of asporin 10 μg/ml) was “enhanced”. The “binding to bFGF (microplate)” value (bFGF) was “bound to bFGF concentration-dependently and specifically” and the “Smad2 phosphorylation by TGF-β1 stimulation” value [4] was “suppressed the Smad2 phosphorylation by TGF-β1 stimulation”.
